According to patent US11214614B2, “LTBP complex-specific inhibitors of TGFβ and uses thereof” (Scholar Rock, Inc., priority 2019, dated 2022):

Experiments:
Test in all cases: Octet (BLI) binding, IgG captured on AHC tips, antigen at 100 nM
[1] = target: huGARP proTGFβ1 (Homo sapiens, UniProt P01137); settings: for ForteBio IgG KD Hu GARP-proTGFβ1 (M) Avid: IgG1-agly, 1:1 fit; for ForteBio IgG KD Hu GARP-proTGFβ1 in solution (M) Avid: Table 10, same assay conditions as Table 9
In short: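 Antibody loaded at 1 μg/mL onto anti-human Fc capture biosensors, then exposed to human GARP-proTGFβ1 at 100 nM in 1× kinetics buffer with 1000 rpm shaking. Association 3 min, dissociation 3 or 5 min; KD from 1:1 local full fit.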

[2] = target: huLTBP1 proTGFβ1 (Homo sapiens, UniProt P01137+Q14766); settings: for Hu LTBP1-proTGFβ1 Kon / Hu LTBP1-proTGFβ1 Koff: Table 9, cycle 3; for Hu LTBP1-proTGFβ1 Kon / Hu LTBP1-proTGFβ1 Koff / Affinity for human LTBP1 complexed with proTGFβ1: IgG1-agly; for Hu LTBP1-proTGFβ1 Kon: 1:1 fit; for Hu LTBP1-proTGFβ1 Koff: 5-minute dissociation; for Response, binding to human LTBP-1 proTGFb1: Octet, antibody immobilized (loading sample); for Affinity for human LTBP1 complexed with proTGFβ1: Table 8, Octet
Sequence of huLTBP1 proTGFβ1 (P01137 30-390): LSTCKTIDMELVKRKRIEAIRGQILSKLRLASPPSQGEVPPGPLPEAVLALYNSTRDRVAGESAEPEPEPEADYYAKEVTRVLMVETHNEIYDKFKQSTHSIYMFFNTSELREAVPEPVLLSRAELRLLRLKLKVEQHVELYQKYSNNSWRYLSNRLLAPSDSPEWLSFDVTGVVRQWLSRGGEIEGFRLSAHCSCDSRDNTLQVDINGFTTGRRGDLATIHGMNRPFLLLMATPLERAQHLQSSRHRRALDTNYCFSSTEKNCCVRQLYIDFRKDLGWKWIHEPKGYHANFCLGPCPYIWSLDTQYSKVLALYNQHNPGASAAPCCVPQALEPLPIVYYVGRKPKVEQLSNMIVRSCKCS
Sequence of huLTBP1 proTGFβ1 (Q14766 347-1721 limits assumed): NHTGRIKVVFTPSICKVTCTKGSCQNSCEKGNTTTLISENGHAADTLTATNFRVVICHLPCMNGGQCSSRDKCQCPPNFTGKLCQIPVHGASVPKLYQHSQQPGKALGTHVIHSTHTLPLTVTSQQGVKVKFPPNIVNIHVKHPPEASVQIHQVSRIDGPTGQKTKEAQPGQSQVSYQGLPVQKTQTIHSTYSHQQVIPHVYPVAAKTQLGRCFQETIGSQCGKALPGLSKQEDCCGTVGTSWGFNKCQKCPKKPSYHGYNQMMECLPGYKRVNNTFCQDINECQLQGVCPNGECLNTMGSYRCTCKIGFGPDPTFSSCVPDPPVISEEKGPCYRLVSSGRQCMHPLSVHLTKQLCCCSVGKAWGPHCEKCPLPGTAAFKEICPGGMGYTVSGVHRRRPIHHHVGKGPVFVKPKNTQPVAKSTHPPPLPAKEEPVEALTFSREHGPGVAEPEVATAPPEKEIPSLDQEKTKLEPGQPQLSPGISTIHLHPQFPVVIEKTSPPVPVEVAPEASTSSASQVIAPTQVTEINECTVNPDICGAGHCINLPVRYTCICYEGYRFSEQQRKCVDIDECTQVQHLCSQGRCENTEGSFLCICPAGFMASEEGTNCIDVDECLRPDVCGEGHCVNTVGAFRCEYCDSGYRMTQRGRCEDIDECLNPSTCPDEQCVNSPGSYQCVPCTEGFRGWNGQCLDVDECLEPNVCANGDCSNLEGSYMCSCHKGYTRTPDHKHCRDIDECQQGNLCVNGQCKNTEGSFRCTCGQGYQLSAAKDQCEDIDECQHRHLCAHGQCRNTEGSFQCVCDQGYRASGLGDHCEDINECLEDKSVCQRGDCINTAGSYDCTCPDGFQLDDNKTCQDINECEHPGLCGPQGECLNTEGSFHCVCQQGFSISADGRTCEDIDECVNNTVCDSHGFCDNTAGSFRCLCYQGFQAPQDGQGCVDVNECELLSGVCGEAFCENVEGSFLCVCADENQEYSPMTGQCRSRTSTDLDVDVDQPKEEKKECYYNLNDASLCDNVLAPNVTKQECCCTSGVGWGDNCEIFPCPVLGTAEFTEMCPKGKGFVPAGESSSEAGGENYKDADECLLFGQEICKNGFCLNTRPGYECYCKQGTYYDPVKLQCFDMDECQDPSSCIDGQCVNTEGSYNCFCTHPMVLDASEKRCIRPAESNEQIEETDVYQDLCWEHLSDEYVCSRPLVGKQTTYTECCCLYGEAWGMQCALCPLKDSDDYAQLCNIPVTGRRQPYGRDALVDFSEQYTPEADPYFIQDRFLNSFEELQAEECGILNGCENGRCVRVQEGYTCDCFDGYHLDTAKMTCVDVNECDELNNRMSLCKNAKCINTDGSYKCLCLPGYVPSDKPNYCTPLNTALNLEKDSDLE
In short: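 Antibodies were captured on anti-human Fc biosensors at 1 μg/mL (~7 nM), to a maximum response of 1 nm. Antigen complex was run at a single 100 nM in 1× kinetics buffer, shaking at 1000 rpm. Association was 3 min and dissociation 3 min (5 min in later rounds), with KD from a local, full 1:1 fit.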

[3] = target: huLTBP3 proTGFβ1 (Homo sapiens, UniProt P01137+Q9NS15); settings: IgG1-agly; for Hu LTBP3-proTGFβ1 Kon / Hu LTBP3-proTGFβ1 Koff: Table 9, cycle 3; for Hu LTBP3-proTGFβ1 Koff: 5-minute dissociation; for Affinity for human LTBP3 complexed with proTGFβ1: Table 8, Octet
Sequence of huLTBP3 proTGFβ1 (P01137 30-390): as the sequence (P01137 30-390) above
Sequence of huLTBP3 proTGFβ1 (Q9NS15 44-1303): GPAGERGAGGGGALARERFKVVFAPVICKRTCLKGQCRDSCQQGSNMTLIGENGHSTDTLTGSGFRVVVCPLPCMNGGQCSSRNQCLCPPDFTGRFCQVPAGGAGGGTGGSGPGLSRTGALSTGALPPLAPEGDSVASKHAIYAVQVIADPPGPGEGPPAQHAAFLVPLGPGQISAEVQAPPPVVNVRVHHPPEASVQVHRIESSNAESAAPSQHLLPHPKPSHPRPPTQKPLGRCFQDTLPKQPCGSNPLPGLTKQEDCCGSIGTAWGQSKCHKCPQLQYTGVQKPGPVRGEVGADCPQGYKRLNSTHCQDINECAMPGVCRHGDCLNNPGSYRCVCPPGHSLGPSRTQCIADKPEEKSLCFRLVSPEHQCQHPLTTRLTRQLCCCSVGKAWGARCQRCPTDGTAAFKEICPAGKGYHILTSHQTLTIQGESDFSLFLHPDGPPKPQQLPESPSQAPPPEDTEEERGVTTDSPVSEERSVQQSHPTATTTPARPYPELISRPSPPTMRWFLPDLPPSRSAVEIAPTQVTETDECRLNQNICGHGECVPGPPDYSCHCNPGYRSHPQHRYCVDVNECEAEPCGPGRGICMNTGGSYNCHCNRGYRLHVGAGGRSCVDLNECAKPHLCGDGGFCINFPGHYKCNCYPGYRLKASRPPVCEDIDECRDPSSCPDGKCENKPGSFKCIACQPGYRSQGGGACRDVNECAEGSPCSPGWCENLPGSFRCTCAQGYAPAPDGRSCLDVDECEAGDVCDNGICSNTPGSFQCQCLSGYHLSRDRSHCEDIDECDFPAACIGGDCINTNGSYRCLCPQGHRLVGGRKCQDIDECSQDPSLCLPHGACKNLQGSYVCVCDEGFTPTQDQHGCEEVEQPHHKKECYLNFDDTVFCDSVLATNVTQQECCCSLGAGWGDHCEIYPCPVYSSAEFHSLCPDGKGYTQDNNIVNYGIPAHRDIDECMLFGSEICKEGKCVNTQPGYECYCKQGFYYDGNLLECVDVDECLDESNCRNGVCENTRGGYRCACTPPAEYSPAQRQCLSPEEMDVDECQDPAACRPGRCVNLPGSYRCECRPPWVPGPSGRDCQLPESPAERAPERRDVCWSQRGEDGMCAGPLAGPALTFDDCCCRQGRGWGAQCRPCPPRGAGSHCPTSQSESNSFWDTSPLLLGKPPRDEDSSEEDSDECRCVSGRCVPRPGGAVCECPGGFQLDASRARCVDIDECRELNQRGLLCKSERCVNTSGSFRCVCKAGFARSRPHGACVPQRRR
In short: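 Antibodies loaded at 1 μg/mL onto anti-human Fc sensors were exposed to each TGFβ1 complex at 100 nM in kinetics buffer. Association ran 3 min; dissociation was 3 min in one protocol and 5 min in another. KD came from a 1:1 fitting model.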

[4] = Table 9, cycle 3, N.B. = non-binder under conditions of this assay
[5] = N.B. = non-binder under conditions of this assay
[6] = Table 8, P.F. = Poor Fit, N.B. = Non-binder under conditions of this assay

Sequence of huGARP proTGFβ1 (P01137 30-390): as the sequence (P01137 30-390) above
Sequence of huGARP proTGFβ1 (Q14392 18-627 partner limits assumed): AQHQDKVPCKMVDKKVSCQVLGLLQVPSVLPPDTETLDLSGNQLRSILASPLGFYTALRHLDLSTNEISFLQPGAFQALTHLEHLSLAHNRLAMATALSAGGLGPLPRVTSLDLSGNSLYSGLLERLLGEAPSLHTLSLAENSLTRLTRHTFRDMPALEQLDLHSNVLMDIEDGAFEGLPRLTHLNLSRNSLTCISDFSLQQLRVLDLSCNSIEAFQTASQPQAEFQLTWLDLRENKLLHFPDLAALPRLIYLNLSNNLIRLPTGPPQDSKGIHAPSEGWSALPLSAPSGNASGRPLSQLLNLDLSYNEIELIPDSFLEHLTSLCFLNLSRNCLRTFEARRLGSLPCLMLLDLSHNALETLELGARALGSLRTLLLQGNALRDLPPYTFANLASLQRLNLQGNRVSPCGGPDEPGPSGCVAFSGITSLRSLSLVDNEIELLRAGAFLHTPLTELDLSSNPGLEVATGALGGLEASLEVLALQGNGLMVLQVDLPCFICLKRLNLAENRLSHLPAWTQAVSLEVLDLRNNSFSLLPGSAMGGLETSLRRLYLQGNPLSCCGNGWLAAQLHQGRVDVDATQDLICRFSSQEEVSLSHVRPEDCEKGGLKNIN

B1: SR-AB63: cycle 3 antibody, lineage SR-AB26; CDRs SEQ ID NO: 292-297; HCVR SEQ ID NO: 360, LCVR SEQ ID NO: 361 (antibody, V domains shown)
VH: QLQLQESGPGLVKPSETLSLTCTVSGGSIRSSSYYWGWIRQPPGKGLEWIGSISYSATTYYNPSLKSRVTISVDTSKNQFSLKLSSVTAADTAVYYCAGDPSYDSIAGMQVWGQGTTVTVSS
VL: DIQLTQSPSSLSASVGDRVTITCRASQSISSYLNWYQQKPGKAPKLLIYAASNLQSGVPSRFSGSGSGTDFTLTISSLQPEDFATYYCQQSFDWPLTFGGGTKVEIK
ForteBio IgG KD Hu GARP-proTGFβ1 (M) Avid [1, 4]: N.B. | ForteBio IgG KD Hu GARP-proTGFβ1 in solution (M) Avid [1, 5]: N.B. | Hu LTBP1-proTGFβ1 Kon [2]: 118000 M⁻¹ s⁻¹ | Hu LTBP1-proTGFβ1 Koff [2]: 7.24e-05 s⁻¹ | Hu LTBP3-proTGFβ1 Kon ([3]; 1:1 fit): 159000 M⁻¹ s⁻¹ | Hu LTBP3-proTGFβ1 Koff [3]: 7.84e-05 s⁻¹

B2: SR-AB42: cycle 3 antibody, lineage SR-AB23; CDRs SEQ ID NO: 166-171; HCVR SEQ ID NO: 318, LCVR SEQ ID NO: 319 (antibody, V domains shown)
VH: QVQLVESGGGVVQPGRSLRLSCAASGFTFRSYVMHWVRQAPGKGLEWVAVISHEGSLKYYADSVKGRFTISRDNSKNTLYLQMNSLRAEDTAVYYCARPRIAARRGGFGYWGQGTLVTVSS
VL: NFMLTQPHSVSESPGKTVTISCTRSSGNIDNNYVQWYQQRPGSSPTTVIYEDNQRPSGVPDRFSGSIDSSSNSASLTISGLKTEDEADYYCQSYDYDTQGVVFGGGTKLTVL
ForteBio IgG KD Hu GARP-proTGFβ1 (M) Avid [1, 4]: N.B. | ForteBio IgG KD Hu GARP-proTGFβ1 in solution (M) Avid [1, 5]: N.B. | Hu LTBP1-proTGFβ1 Kon [2]: 154000 M⁻¹ s⁻¹ | Hu LTBP1-proTGFβ1 Koff [2]: 6e-05 s⁻¹ | Hu LTBP3-proTGFβ1 Kon ([3]; 1:1 fit): 232000 M⁻¹ s⁻¹ | Hu LTBP3-proTGFβ1 Koff [3]: 6e-05 s⁻¹

B3: SR-AB23: second-round (CDR-H3 mutagenesis) antibody, lineage SR-AB14; CDRs SEQ ID NO: 116-121 (antibody, V domains shown)
VH: QVQLVESGGGVVQPGRSLRLSCAASGFTFRSYVMHWVRQAPGKGLEWVAVISHEGSLKYYADSVKGRFTISRDNSKNTLYLQMNSLRAEDTAVYYCARPRIAARRGGFGYWGQGTLVTVSS
VL: NFMLTQPHSVSESPGKTVTISCTRSSGNIDNNYVQWYQQRPGSSPTTVIYEDNQRPSGVPDRFSGSIDSSSNSASLTISGLKTEDEADYYCQSYDSDNQGVVFGGGTKLTVL
ForteBio IgG KD Hu GARP-proTGFβ1 (M) Avid [1, 6]: N.B. | Response, binding to human LTBP-1 proTGFb1 [2]: 0.3449 nm | Affinity for human LTBP1 complexed with proTGFβ1 [2]: single digit nM | Affinity for human LTBP3 complexed with proTGFβ1 [3]: single digit nM

B4: SR-AB22: second-round (CDR-H3 mutagenesis) antibody, lineage SR-AB14; CDRs SEQ ID NO: 108-113 (antibody, V domains shown)
VH: QVQLVESGGGVVQPGRSLRLSCAASGFTFRSYVMHWVRQAPGKGLEWVAVISHEGSLKYYADSVKGRFTISRDNSKNTLYLQMNSLRAEDTAVYYCAVPRIAARRGGFGYWGQGTLVTVSS
VL: NFMLTQPHSVSESPGKTVTISCTRSSGNIDNNYVQWYQQRPGSSPTTVIYEDNQRPSGVPDRFSGSIDSSSNSASLTISGLKTEDEADYYCQSYDSDNQGVVFGGGTKLTVL
ForteBio IgG KD Hu GARP-proTGFβ1 (M) Avid [1, 6]: P.F. | Response, binding to human LTBP-1 proTGFb1 [2]: 0.4317 nm | Affinity for human LTBP1 complexed with proTGFβ1 [2]: single digit nM | Affinity for human LTBP3 complexed with proTGFβ1 [3]: single digit nM | ForteBio IgG KD Hu LTBP3-proTGFβ1 (M) Avid ([3]; Table 8, 1:1 fit, P.F. = Poor Fit, N.B. = Non-binder under conditions of this assay): P.F.
